Assay [1] deals with porcine cardiac ventricular myosin (βmys) (porcine) (UniProt P79293).
The target is the same in assay [2]. The source holds these as a separate data set.

Among the data in paper PMC6282072 are actin-activated myosin ATPase, Km (0.6 µM myosin titrated with 1–50 µM F-actin, 25 mM KCl, 21°C) and actin-activated myosin ATPase, Km (value of the running text) values, retold here.

“bovine ventricular actin (cardiac actin) (from UniProt Q3ZC07 1-377) (natural protein)” yielded an actin-activated myosin ATPase, Km (0.6 µM myosin titrated with 1–50 µM F-actin, 25 mM KCl, 21°C) in assay [1] of 3.7 µM. This substance also registered an actin-activated myosin ATPase, Km (value of the running text) in assay [2] of 3.6 µM.
